Test results taken from patent publication US20150239933A1 (GEORGETOWN UNIVERSITY, published 2015).
“And” between values parts separate entries of the source, which are not always exact repeats. Identical values can stand only once.

B1: tubulin α4 C-terminal tail (CTT) peptide, detyrosinated isoform (peptide)
peptide: EDEDEGEE
notes: Synthetic peptide from GenScript; also called α4 detyrosinated isoform
B2: tubulin α1A/1B C-terminal tail (CTT) peptide, detyrosinated isoform (peptide)
peptide: EGEGEEEGEE
notes: Synthetic peptide from GenScript; also called α1A/1B detyrosinated isoform
B3: tubulin α1A/1B C-terminal tail (CTT) peptide, more basic variant EGEGEEEGQQQ (peptide)
peptide: EGEGEEEGQQQ
notes: Synthetic variant peptide from GenScript; also called α1A/1B more basic
B4: tubulin α4 C-terminal tail (CTT) peptide, Δ2 isoform (peptide)
peptide: EDEDEGE
notes: Synthetic peptide from GenScript; also called α4 Δ2 isoform
B5: tubulin α1A/1B C-terminal tail (CTT) peptide, more basic variant EGEGEEEGQQQQ (peptide)
peptide: EGEGEEEGQQQQ
notes: as for B3
B6: Human recombinant TUBB3 (other)
chain: MREIVHIQAGQCGNQIGAKFWEVISDEHGIDPSGNYVGDSDLQLERISVYYNEASSHKYVPRAILVDLEPGTMDSVRSGAFGHLFRPDNFIFGQSGAGNNWAKGHYTEGAELVDSVLDVVRKECENCDCLQGFQLTHSLGGGTGSGMGTLLISKVREEYPDRIMNTFSVVPSPKVSDTVVEPYNATLSIHQLVENTDETYCIDNEALYDICFRTLKLATPTYGDLNHLVSATMSGVTTSLRFPGQLNADLRKLAVNMVPFPRLHFFMPGFAPLTARGSQQYRALTVPELTQQMFDAKNMMAACDPRHGRYLTVATVFRGRMSMKEVDEQMLAIQSKNSSYFVEWIPNNVKVAVCDIPPRGLKMSSTFIGNSTAIQELFKRISEQFTAMFRRKAFLHWYTGEGMDEMEFTEAESNMNDLVSEYQQYQDATAEEEGEMYEDDEEESEAQGPK
notes: Bought protein; immobilised by amine coupling in SPR, in solution in the dot blot; also called tubulin β-3; Tubulin β-3
B7: tubulin α1A/1B C-terminal tail (CTT) peptide, tyrosinated isoform (peptide)
peptide: EGEGEEEGEEY
notes: Synthetic peptide from GenScript; also called α1A/1B tyrosinated isoform
B8: tubulin α1A/1B C-terminal tail (CTT) peptide, more basic variant EGEGEEEGQQ (peptide)
peptide: EGEGEEEGQQ
notes: as for B3
B9: tubulin α4 C-terminal tail (CTT) peptide, tyrosinated isoform (peptide)
peptide: EDEDEGEEY
notes: Synthetic peptide from GenScript; also called α4 tyrosinated isoform

Columns and labels:
gp120IIIB [1] = molecular target: T1, gp120IIIB (HIV, UniProt P04578 33-511); experiment: dot blot: 2 µg peptide spotted, 5 µg gp120IIIB in 20 mL, anti-gp120 antibody
T1 construct: Bought protein
Experimental: Dot blot analysis: CTTs or Helix-A and -B peptides (2 μg each) were spotted on a nitrocellulose membrane and allowed to dry. […] The membranes were washed and then incubated with a mouse anti-gp120 antibody (1:1000; Immunodiagnostics, Inc.) or mouse anti-TUBB3 antibody (1:5000; Covance, NJ) in TBST for 2 hours. Membranes were washed and incubated in goat anti-mouse HP-conjugated secondary antibody (1:20,000; Jackson ImmunoResearch Laboratories, Inc., PA). Visualization of the bands was then accomplished by the addition of PIERCE® SUPERSIGNAL™ West Pico-Stable Peroxidase Solution and Luminol/Enhancer Solution (Pierce Biotechnology, Inc., Rockford, Ill.).
Following incubation with a corresponding HRP-conjugated secondary antibody 1 hour at RT, the immunocomplexes were visualized with chemiluminescence.

[2] = molecular target: T2, assembled microtubules (containing ~25% of TUBB3) (porcine, UniProt F1S6M7 41-471); experiment: SPR Biacore T200, 60 sec injection of 10 uM over immobilised microtubules, reference-subtracted
T2 construct: also called assembled MTs; MTs

Human recombinant TUBB3 = molecular target: B6; experiment: SPR (Biacore T200), recombinant TUBB3 amine-coupled to a CM5 chip, peptide as analyte at 625 nM to 20 µM
gp120IIIB [3] = molecular target: T1, gp120IIIB; experiment: SPR Biacore T200, TUBB3 immobilised, 1:1 model; mean of two experiments
Experimental: (§1) After ligand capture, the surfaces were deactivated by injecting 1 M ethanolamine for 720 sec at 10 μL/min. HBS-P (10 mM HEPES, pH7.4, 150 mM NaCl, 0.05% P-20) with 2 mM MgCl₂ used as the running buffer. Flow cell 1 on each chip was left empty and used for reference surface. […] Kinetic studies were performed by injecting different concentrations of the analytes in triplicate. The chip surface was regenerated by with 10 mM glycine pH 1.5 injected for 30 sec at a flow rate of 100 μL/min. Each sample was injected for 60 sec (contact time) followed by a dissociation time of 300 sec at a flow rate of 100 μL/min. Data was analyzed with BIACORE® T200™ Evaluation Software (version 1) to determine the equilibrium dissociation constant (KD) from a 1:1 binding model.
(§2) Recombinant TUBB3, tubulin dimer, and assembled MTs from bovine brains were immobilized on a BIACORE® CM5 chip by amine coupling. […] The kinetics of interaction was analyzed using a BIACORE® T200™ instrument. BiaEvaluation software was used to calculate binding affinities based on 1:1 binding model.

gp120MN [4] = molecular target: T3, gp120MN (HIV, UniProt P05877 32-513); experiment: as above
T3 construct: Bought protein; only its gp120 part would apply; also called GP-MN
Experimental: as §1, §2

gp120IIIB [5] = molecular target: T1, gp120IIIB; experiment: SPR Biacore T200, TUBB3 amine-coupled to CM5, gp120 3.13-100 nM as analyte, 1:1 model; one of two experiments
gp120MN [6] = molecular target: T3, gp120MN; experiment: as above

| Binder | binding result (gp120IIIB [1]) | other results |
| --- | --- | --- |
| B1 | no binding | – |
| B2 | no binding | – |
| B3 | no binding | – |
| EEEEGEDEA (Synthetic peptide from GenScript) [tubulin β2A/2B C-terminal tail (CTT) peptide] | no binding | – |
| RAKWNNTLKQIASK (Synthetic peptide from GenScript) [Helix-B peptide] | – | response (4-1) RU [2]: 0.2 RU; binding result (Human recombinant TUBB3): no binding (tested: 20 µM) |
| B4 | no binding | – |
| B5 | no binding | – |
| B6 | – | Kd (gp120IIIB [3]): 7.5 nM; Kd (gp120MN [4]): 740 nM; Kd (gp120IIIB [5]): 7.91 nM and 7.05 nM; Kd (gp120MN [6]): 901 nM and 579 nM |
| B7 | no binding | – |
| B8 | no binding | – |
| B9 | no binding | – |
